Measurements from the supplement of paper PMC10567573.

B1: HSP90AB1 (parent)
chain: QVANSAFVERVRKRGFEVVYMTEP

Variants of: B1
Experiment: protein stability index of a GFP-peptide fusion (GPS, HEK-293T) (PSI 1-6); higher = more stable
Conditions: c terminus: a fixed tail appended
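Further: lentivirally expressed fusions sorted by FACS into six bins by GFP to DsRed ratio, PSI derived from sequencing read proportions per bin multiplied by bin number.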

Q: For QVANSEFVERVRKRGFEVVYMTEP [A6E], which protein stability index is on record?
A: 2.86

Q: For QVAHSAFVERVRKRGFEVVYMTEP [N4H], which protein stability index is on record?
A: 2.6

Q: With NVANSAFVERVRKRGFEVVYMTEP [Q1N] as the variant, how does the protein stability index read?
A: 2.11

Q: With QVANSAFVERVRKRGFEVVYTTEP [M21T] as the variant, how does the protein stability index read?
A: 3.05

Q: With QVANEAFVERVRKRGFEVVYMTEP [S5E] as the variant, how does the protein stability index read?
A: 2

Q: With QVANSAFVERVRKRGFEVWYMTEP [V19W] as the variant, how does the protein stability index read?
A: 1.42

Q: For SVANSAFVERVRKRGFEVVYMTEP [Q1S], which protein stability index is on record?
A: 2.12

Q: For QVANSAFVERVRKLGFEVVYMTEP [R14L], which protein stability index is on record?
A: 2.03

Q: With QVANSAFVERVRPRGFEVVYMTEP [K13P] as the variant, how does the protein stability index read?
A: 2.63

Q: Which protein stability index does the source give for QVANSAFVERVRKRDFEVVYMTEP [G15D] here?
A: 3.3

Q: Which protein stability index does the source give for QVANSTFVERVRKRGFEVVYMTEP [A6T] here?
A: 2.69

Q: For QVMNSAFVERVRKRGFEVVYMTEP [A3M], which protein stability index is on record?
A: 2.26

Q: With QPANSAFVERVRKRGFEVVYMTEP [V2P] as the variant, how does the protein stability index read?
A: 2.85

Q: For QVANSAFVERVRKRGFEVVYMIEP [T22I], which protein stability index is on record?
A: 1.81

Q: Which protein stability index does the source give for QVANSAFVSRVRKRGFEVVYMTEP [E9S] here?
A: 1.63

Q: For QVPNSAFVERVRKRGFEVVYMTEP [A3P], which protein stability index is on record?
A: 2.69

Q: With QVANSAFVPRVRKRGFEVVYMTEP [E9P] as the variant, how does the protein stability index read?
A: 2.56

Q: For QVANSAFCERVRKRGFEVVYMTEP [V8C], which protein stability index is on record?
A: 2.92

Q: With QVANSAFVERVAKRGFEVVYMTEP [R12A] as the variant, how does the protein stability index read?
A: 2.18

Q: Which protein stability index does the source give for KVANSAFVERVRKRGFEVVYMTEP [Q1K] here?
A: 2.17

Q: With QVANSAFVERVRKRGFEVVYMTEQ [P24Q] as the variant, how does the protein stability index read?
A: 2.52

Q: With QVANHAFVERVRKRGFEVVYMTEP [S5H] as the variant, how does the protein stability index read?
A: 2.29

Q: Which protein stability index does the source give for QVDNSAFVERVRKRGFEVVYMTEP [A3D] here?
A: 2.11

Q: With QVANSAFQERVRKRGFEVVYMTEP [V8Q] as the variant, how does the protein stability index read?
A: 2.2

Q: With QVANSAFVEEVRKRGFEVVYMTEP [R10E] as the variant, how does the protein stability index read?
A: 2.28

Q: For QVANSAFVLRVRKRGFEVVYMTEP [E9L], which protein stability index is on record?
A: 3.24

Q: Which protein stability index does the source give for QVANSAFVEYVRKRGFEVVYMTEP [R10Y] here?
A: 1.58

Q: With QVANSAFVERVRKRGFENVYMTEP [V18N] as the variant, how does the protein stability index read?
A: 3.1

Q: Which protein stability index does the source give for QVANSAFVERVRKRGFEVVYQTEP [M21Q] here?
A: 3.1

Q: For QVANSAFVERVRKRGFEVQYMTEP [V19Q], which protein stability index is on record?
A: 2.33

Q: Which protein stability index does the source give for QVANSAFVERVRKRGFEVVYMTEM [P24M] here?
A: 2.14

Q: For QVANSAFAERVRKRGFEVVYMTEP [V8A], which protein stability index is on record?
A: 2.33

Q: With QVANSAFVERARKRGFEVVYMTEP [V11A] as the variant, how does the protein stability index read?
A: 2.62

Q: For QVANSAFVERHRKRGFEVVYMTEP [V11H], which protein stability index is on record?
A: 2.73

Q: With QVANSAFVERVRKRGFEVVYMTVP [E23V] as the variant, how does the protein stability index read?
A: 2.38

Q: For QVANSAFVERVRKRGFEVVYMTQP [E23Q], which protein stability index is on record?
A: 1.9

Q: With QVANSAFVERVRKRGFEVVYMTTP [E23T] as the variant, how does the protein stability index read?
A: 1.89

Q: For QVANSAFVERVRKRGFAVVYMTEP [E17A], which protein stability index is on record?
A: 1.26

Q: Which protein stability index does the source give for DVANSAFVERVRKRGFEVVYMTEP [Q1D] here?
A: 2.21

Q: With QVANSAFVERVRKRGFEVVYMTHP [E23H] as the variant, how does the protein stability index read?
A: 1.95

Q: Which protein stability index does the source give for QVANSAFVERMRKRGFEVVYMTEP [V11M] here?
A: 2.11

Q: For QVANSAFVERVRKRGFEVVYMTRP [E23R], which protein stability index is on record?
A: 2.47

Q: Which protein stability index does the source give for QVANSAEVERVRKRGFEVVYMTEP [F7E] here?
A: 3.48

Q: Which protein stability index does the source give for QVANSAFVERVRRRGFEVVYMTEP [K13R] here?
A: 2.43

Q: For QVANSAFVERVRKRGFEPVYMTEP [V18P], which protein stability index is on record?
A: 2.47

Q: Which protein stability index does the source give for QVANSAFVERVRKYGFEVVYMTEP [R14Y] here?
A: 2.21

Q: For QVANSAFVERVRKRRFEVVYMTEP [G15R], which protein stability index is on record?
A: 1.98

Q: For QVANSAFVERVRKRGHEVVYMTEP [F16H], which protein stability index is on record?
A: 3.05

Q: Which protein stability index does the source give for QVANSAFVERVRKRGFEVVYMTEG [P24G] here?
A: 2.42

Q: For QVSNSAFVERVRKRGFEVVYMTEP [A3S], which protein stability index is on record?
A: 2.74

Q: Which protein stability index does the source give for WVANSAFVERVRKRGFEVVYMTEP [Q1W] here?
A: 1.46

Q: Which protein stability index does the source give for QVANSAFVERVSKRGFEVVYMTEP [R12S] here?
A: 2.87

Q: For QVANSHFVERVRKRGFEVVYMTEP [A6H], which protein stability index is on record?
A: 2.43

Q: With QVANSAFHERVRKRGFEVVYMTEP [V8H] as the variant, how does the protein stability index read?
A: 2.47

Q: Which protein stability index does the source give for QVANSAFVERYRKRGFEVVYMTEP [V11Y] here?
A: 2.17

Q: For QVANSAFVERVRKRGFEHVYMTEP [V18H], which protein stability index is on record?
A: 2.83

Q: For QVANSAFTERVRKRGFEVVYMTEP [V8T], which protein stability index is on record?
A: 2.52

Q: For QVYNSAFVERVRKRGFEVVYMTEP [A3Y], which protein stability index is on record?
A: 2.35

Q: For QVANSAFVERVMKRGFEVVYMTEP [R12M], which protein stability index is on record?
A: 2.01

Q: With QVANSAFVERVRKRGFHVVYMTEP [E17H] as the variant, how does the protein stability index read?
A: 1.76

Q: Which protein stability index does the source give for QYANSAFVERVRKRGFEVVYMTEP [V2Y] here?
A: 2.3

Q: Which protein stability index does the source give for QVANSAFVERVRKRGFEVVYMHEP [T22H] here?
A: 1.91

Q: With QVANSAFVERSRKRGFEVVYMTEP [V11S] as the variant, how does the protein stability index read?
A: 2.61

Q: With QVANSAFVERVKKRGFEVVYMTEP [R12K] as the variant, how does the protein stability index read?
A: 3.12

Q: With VVANSAFVERVRKRGFEVVYMTEP [Q1V] as the variant, how does the protein stability index read?
A: 2.73

Q: Which protein stability index does the source give for QVANSAFVERVRKRGFEVVYCTEP [M21C] here?
A: 2.41

Q: With QVANSAFVERVRGRGFEVVYMTEP [K13G] as the variant, how does the protein stability index read?
A: 1.34

Q: For QVANSAFVERVRKRGFEVVYMLEP [T22L], which protein stability index is on record?
A: 1.7

Q: For QVANSAFVERVRKRGFEVVYMTET [P24T], which protein stability index is on record?
A: 2.48

Q: With QVANSLFVERVRKRGFEVVYMTEP [A6L] as the variant, how does the protein stability index read?
A: 2.09

Q: With QVANSAFVERVWKRGFEVVYMTEP [R12W] as the variant, how does the protein stability index read?
A: 1.6

Q: With QVANSAFVERTRKRGFEVVYMTEP [V11T] as the variant, how does the protein stability index read?
A: 2.83

Q: Which protein stability index does the source give for QVANSAFVERVRKRGFEVVYFTEP [M21F] here?
A: 2.06

Q: Which protein stability index does the source give for QVANSAFVCRVRKRGFEVVYMTEP [E9C] here?
A: 2.07

Q: With QVANSAFVWRVRKRGFEVVYMTEP [E9W] as the variant, how does the protein stability index read?
A: 3.56

Q: For QVANSAFVERIRKRGFEVVYMTEP [V11I], which protein stability index is on record?
A: 1.79

Q: For QVANSAFVERVRKRGFEVIYMTEP [V19I], which protein stability index is on record?
A: 2.15

Q: With QVANSAFVERLRKRGFEVVYMTEP [V11L] as the variant, how does the protein stability index read?
A: 1.69

Q: With QVANSKFVERVRKRGFEVVYMTEP [A6K] as the variant, how does the protein stability index read?
A: 2.32

Q: For QVANSAFVERVRKRGFEVVYMMEP [T22M], which protein stability index is on record?
A: 1.91

Q: With QVANSAFVERVRKRGYEVVYMTEP [F16Y] as the variant, how does the protein stability index read?
A: 2.11

Q: For QVALSAFVERVRKRGFEVVYMTEP [N4L], which protein stability index is on record?
A: 1.69

Q: Which protein stability index does the source give for QVANSAFVFRVRKRGFEVVYMTEP [E9F] here?
A: 2.16

Q: With QVANSAFVERVRKRGFEVVYHTEP [M21H] as the variant, how does the protein stability index read?
A: 3.37

Q: For QVANSAFVEDVRKRGFEVVYMTEP [R10D], which protein stability index is on record?
A: 2.58

Q: For QVANSAFMERVRKRGFEVVYMTEP [V8M], which protein stability index is on record?
A: 2.49

Q: Which protein stability index does the source give for QVANSAFVERVRKRGFEVVYMTGP [E23G] here?
A: 1.78

Q: Which protein stability index does the source give for QVANSAFVELVRKRGFEVVYMTEP [R10L] here?
A: 1.81

Q: For QVANSAFVEMVRKRGFEVVYMTEP [R10M], which protein stability index is on record?
A: 1.54

Q: For QVANSAFVERVRKRGFEFVYMTEP [V18F], which protein stability index is on record?
A: 1.85

Q: With QVANSAFVERVRKRGVEVVYMTEP [F16V] as the variant, how does the protein stability index read?
A: 2.64

Q: Which protein stability index does the source give for QVANSAFVERVRKRGCEVVYMTEP [F16C] here?
A: 2.71

Q: Which protein stability index does the source give for QVKNSAFVERVRKRGFEVVYMTEP [A3K] here?
A: 2.81

Q: For QVANSAFVERVRKRGFEVVYRTEP [M21R], which protein stability index is on record?
A: 3.33
